From paper PMC12823590

Biological target: recombinant OsLIKE1-KD from E. coli (GST-OsLIKE1-KD and OsLIKE1-KD-His) (rice)
Test: native gel or EMSA

recombinant OsLIKE1-KD from E. coli (GST-OsLIKE1-KD and OsLIKE1-KD-His) (domain or fragment)
stoichiometry N: 2
